T1: Grhl1 DBD (Homo sapiens, UniProt Q9NZI5 248-485)
T1 sequence: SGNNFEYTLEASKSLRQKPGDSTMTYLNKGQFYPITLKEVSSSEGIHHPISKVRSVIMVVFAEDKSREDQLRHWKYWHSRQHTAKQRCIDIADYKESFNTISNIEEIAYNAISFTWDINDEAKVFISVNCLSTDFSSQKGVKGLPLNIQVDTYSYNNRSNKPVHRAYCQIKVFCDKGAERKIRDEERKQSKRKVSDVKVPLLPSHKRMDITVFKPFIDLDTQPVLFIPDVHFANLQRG


Key:
SEC-RALS = target: the molecule itself; assay: SEC-RALS
Grhl1 DBD = target: T1, Grhl1 DBD; assay: ITC

| Binder | stoichiometry N (SEC-RALS) | binding result (Grhl1 DBD) |
| --- | --- | --- |
| ΔN_Grhl1 (N-terminal truncation construct of human Grhl1, aa 248–618; DBD plus dimerization domain) (domain or fragment, UniProt Q9NZI5 248-618, looked up) SGNNFEYTLEASKSLRQKPGDSTMTYLNKGQFYPITLKEVSSSEGIHHPISKVRSVIMVVFAEDKSREDQLRHWKYWHSRQHTAKQRCIDIADYKESFNTISNIEEIAYNAISFTWDINDEAKVFISVNCLSTDFSSQKGVKGLPLNIQVDTYSYNNRSNKPVHRAYCQIKVFCDKGAERKIRDEERKQSKRKVSDVKVPLLPSHKRMDITVFKPFIDLDTQPVLFIPDVHFANLQRGTHVLPIASEELEGEGSVLKRGPYGTEDDFAVPPSTKLARIEEPKRVLLYVRKESEEVFDALMLKTPSLKGLMEAISDKYDVPHDKIGKIFKKCKKGILVNMDDNIVKHYSNEDTFQLQIEEAGGSYKLTLTEI | 2 | – |
| Mut_12mer (dsDNA) DNA 1: AAAATCGATTTT DNA 2: AAAATCGATTTT | – | no binding |

Source: article PMC5829564 (Nucleic Acids Research, 2018)
